# Laboratory results taken from patent US20220031820.
# System: T1, recombinant syndecan-1
# T1 sequence (P18827 whole entry, species assumed, looked up): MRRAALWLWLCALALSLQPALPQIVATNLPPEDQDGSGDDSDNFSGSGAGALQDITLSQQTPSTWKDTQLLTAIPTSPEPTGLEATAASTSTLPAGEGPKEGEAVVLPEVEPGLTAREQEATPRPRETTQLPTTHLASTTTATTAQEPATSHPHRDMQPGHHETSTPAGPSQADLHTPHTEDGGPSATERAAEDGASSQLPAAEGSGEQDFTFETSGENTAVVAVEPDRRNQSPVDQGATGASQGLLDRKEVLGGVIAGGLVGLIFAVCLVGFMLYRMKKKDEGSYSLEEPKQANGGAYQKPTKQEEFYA
substance,measurement,value
recombinant GzmB,"in vitro syndecan-1 cleavage assay (coomassie gel); GzmB 500 nM, syndecan-1 0.7 ug",syndecan-1 was cleaved by all three granzymes
